Values belong to the molecule of their own block, whether it stands above or below them.
Columns and labels:
[1] = target: T1, D2-IC3ΔNT10 (Rattus norvegicus, UniProt P61169); experiment: GST pull-down binding of arrestin3 to D2-IC3ΔNT10; details: versus D2-IC3; 400 ng fusion protein, 100 ng arrestin3
T1 sequence (P61169 221-371 limits assumed): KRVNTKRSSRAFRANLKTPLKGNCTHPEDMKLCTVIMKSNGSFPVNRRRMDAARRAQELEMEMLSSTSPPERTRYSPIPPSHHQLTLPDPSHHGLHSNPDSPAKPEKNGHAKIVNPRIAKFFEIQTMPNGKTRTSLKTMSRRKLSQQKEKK

[2] = target: T2, GST-D3-IC3 (third intracellular loop of the rat dopamine D3 receptor) (Rattus norvegicus, UniProt P19020); experiment: GST pull-down binding of purified arrestin to GST-D3-IC3
T2 sequence (P19020 210-372): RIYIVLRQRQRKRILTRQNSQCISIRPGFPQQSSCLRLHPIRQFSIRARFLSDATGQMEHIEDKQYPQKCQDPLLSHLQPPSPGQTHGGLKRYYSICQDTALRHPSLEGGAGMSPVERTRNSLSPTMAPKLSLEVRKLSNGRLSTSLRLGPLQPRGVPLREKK

[3] = target: T3, GST-D2-IC3 (third intracellular loop of the rat dopamine D2L receptor) (Rattus norvegicus, UniProt P61169); experiment: GST pull-down binding of purified arrestin to GST-D2-IC3
T3 sequence (P61169 211-371): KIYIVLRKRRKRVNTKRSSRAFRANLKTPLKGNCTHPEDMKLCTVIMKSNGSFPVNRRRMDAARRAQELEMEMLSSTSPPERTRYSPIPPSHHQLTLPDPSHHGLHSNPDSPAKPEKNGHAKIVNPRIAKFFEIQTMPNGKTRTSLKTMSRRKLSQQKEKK

[4] = target: T4, D2-IC3ΔNT5 (Rattus norvegicus, UniProt P61169); experiment: GST pull-down binding of arrestin3 to D2-IC3ΔNT5; details: versus D2-IC3; 400 ng fusion protein, 100 ng arrestin3
T4 sequence (P61169 216-371 limits assumed): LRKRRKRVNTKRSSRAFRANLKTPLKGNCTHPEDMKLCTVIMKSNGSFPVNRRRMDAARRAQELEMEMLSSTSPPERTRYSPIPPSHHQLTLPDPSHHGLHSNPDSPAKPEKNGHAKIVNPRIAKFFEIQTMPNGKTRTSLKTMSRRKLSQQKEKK

[5] = target: D2-A4 mutant receptor (Rattus norvegicus, UniProt P61169, I212A/I214A/V215A/Y213A); details: PTX 50 ng/ml overnight prior to agonist treatment
[6] = target: wild type D2 receptor (Rattus norvegicus, UniProt P61169); details: PTX 50 ng/ml overnight prior to agonist treatment
[7] = target: purified bovine arrestin3 (bovine, UniProt P32120 1-420); experiment: pull-down
[8] = amount of arrestin3 bound to 300 ng of GST-IC3
[9] = saturation analysis, 300 ng GST-IC3, 30 min room temperature
[10] = rate of association, data not shown

Sequence of purified bovine arrestin3 (P32120 whole entry): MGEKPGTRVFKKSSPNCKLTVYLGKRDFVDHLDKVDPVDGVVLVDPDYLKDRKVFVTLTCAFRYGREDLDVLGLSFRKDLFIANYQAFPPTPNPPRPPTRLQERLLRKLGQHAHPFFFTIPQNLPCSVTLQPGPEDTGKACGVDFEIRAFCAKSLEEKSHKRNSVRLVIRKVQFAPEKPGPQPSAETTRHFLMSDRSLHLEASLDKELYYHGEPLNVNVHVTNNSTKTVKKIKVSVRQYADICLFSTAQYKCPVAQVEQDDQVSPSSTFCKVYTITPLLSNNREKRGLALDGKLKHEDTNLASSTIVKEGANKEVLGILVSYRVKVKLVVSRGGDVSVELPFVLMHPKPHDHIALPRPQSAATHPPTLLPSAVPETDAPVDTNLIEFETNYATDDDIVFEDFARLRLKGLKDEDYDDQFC
Sequence of D2-A4 mutant receptor (P61169 whole entry I212A/Y213A/I214A/V215A): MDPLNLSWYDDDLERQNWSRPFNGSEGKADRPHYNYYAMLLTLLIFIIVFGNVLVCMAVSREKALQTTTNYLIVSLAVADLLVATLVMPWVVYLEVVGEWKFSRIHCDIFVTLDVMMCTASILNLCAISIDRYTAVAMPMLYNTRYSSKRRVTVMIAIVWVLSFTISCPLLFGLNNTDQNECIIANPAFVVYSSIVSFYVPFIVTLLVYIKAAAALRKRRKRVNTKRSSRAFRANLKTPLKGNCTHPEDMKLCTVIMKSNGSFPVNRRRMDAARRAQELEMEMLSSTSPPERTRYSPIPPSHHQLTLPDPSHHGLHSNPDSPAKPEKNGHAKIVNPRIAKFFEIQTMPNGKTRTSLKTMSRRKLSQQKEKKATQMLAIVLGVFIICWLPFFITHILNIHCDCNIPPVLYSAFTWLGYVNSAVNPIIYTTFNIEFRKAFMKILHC
Sequence of wild type D2 receptor (P61169 whole entry): as the sequence (P61169 whole entry I212A/Y213A/I214A/V215A) above, with A212I, A213Y, A214I, A215V counted along it

- decrease of arrestin binding [1]: about 60%
- Bmax [2, 8]: 10.2 ± 0.6 ng
- Kd [2, 9]: 79 ± 14 nM
- Bmax [3, 8]: 10.1 ± 0.6 ng
- half-time for binding [3, 10]: approximately 2 min
- time at which binding approached equilibrium [3, 10]: ≤ 15 min
- Kd [3, 9]: 72 ± 14 nM
- Kd ([3]; summary for D2-like receptor IC3 (D2-IC3 and D3-IC3), GST pull-down): 70 to 80 nM
- decrease of arrestin binding [4]: about 60%
Molecule: Arrestin3: purified bovine arrestin3, non-visual arrestin also termed β-arrestin 2

- binding of arrestin2 ([2]; GST pull-down, in words): bound weakly
- binding of arrestin2 ([3]; GST pull-down, in words): bound weakly
Molecule: Arrestin2: purified bovine arrestin2, non-visual arrestin also termed β-arrestin 1

Molecule: pertussis toxin [PTX]
- effect of PTX on activation of ERKs [5]: greatly decreased
- effect of PTX on activation of ERKs [6]: greatly decreased

- Kd [7]: 72 nM
B1: GST-D2-IC3 (GST fusion of the third intracellular loop of the rat dopamine D2L receptor, amino acids 211-371) (domain or fragment, UniProt P61169 211-371, looked up)
chain: KIYIVLRKRRKRVNTKRSSRAFRANLKTPLKGNCTHPEDMKLCTVIMKSNGSFPVNRRRMDAARRAQELEMEMLSSTSPPERTRYSPIPPSHHQLTLPDPSHHGLHSNPDSPAKPEKNGHAKIVNPRIAKFFEIQTMPNGKTRTSLKTMSRRKLSQQKEKK

- Kd [7]: 79 nM
B2: GST-D3-IC3 (GST fusion of the third intracellular loop of the rat dopamine D3 receptor, amino acids 210-372) (domain or fragment, UniProt P19020 210-372, looked up)
chain: RIYIVLRQRQRKRILTRQNSQCISIRPGFPQQSSCLRLHPIRQFSIRARFLSDATGQMEHIEDKQYPQKCQDPLLSHLQPPSPGQTHGGLKRYYSICQDTALRHPSLEGGAGMSPVERTRNSLSPTMAPKLSLEVRKLSNGRLSTSLRLGPLQPRGVPLREKK

From PMC2606918 (Molecular pharmacology, 2008)
